What all share (test): two-hybrid
The target in assay [1] is α-catenin, full-length (pBTM116-HA-α-catenin) (mouse) (UniProt P26231).
For assay [2], the target named is α-catenin COOH-terminal half (pBTM116-HA-α-catenin-C) (mouse) (UniProt P26231).
Assay [3] deals with nectin-2α cytoplasmic region (pBTM116-HA-nectin-2α-CP) (mouse).

This passage reports β-galactosidase activity (units of β-galactosidase activity) results from paper PMC2175253.

Bounds are passed on as bounds.

nectin-2α cytoplasmic region (pBTM116-HA-nectin-2α-CP) (mouse), sequence (P32507 387-467): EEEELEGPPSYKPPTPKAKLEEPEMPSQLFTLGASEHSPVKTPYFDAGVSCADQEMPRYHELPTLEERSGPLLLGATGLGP

Take “l-afadin (pGAD424-HA-l-afadin), full-length, HA-tagged and fused with the GAL4 activation domain (from UniProt O35889-1 1-1829) (natural protein)”: the β-galactosidase activity (units of β-galactosidase activity) in assay [1] is less than 1; in assay [2] it was 30; in assay [3], 41.
